Groups on a side chain read outwards from the residue. No end group written: not given here. CO‑CH2 = CO-CH2 linker joining mPEG to the Lys side chain

Experiment [1] has as its target T1, PTH receptor (PTHR1) on SaOS-2 osteosarcoma cells (UniProt Q03431 27-593, limits assumed).
T1 sequence (looked up): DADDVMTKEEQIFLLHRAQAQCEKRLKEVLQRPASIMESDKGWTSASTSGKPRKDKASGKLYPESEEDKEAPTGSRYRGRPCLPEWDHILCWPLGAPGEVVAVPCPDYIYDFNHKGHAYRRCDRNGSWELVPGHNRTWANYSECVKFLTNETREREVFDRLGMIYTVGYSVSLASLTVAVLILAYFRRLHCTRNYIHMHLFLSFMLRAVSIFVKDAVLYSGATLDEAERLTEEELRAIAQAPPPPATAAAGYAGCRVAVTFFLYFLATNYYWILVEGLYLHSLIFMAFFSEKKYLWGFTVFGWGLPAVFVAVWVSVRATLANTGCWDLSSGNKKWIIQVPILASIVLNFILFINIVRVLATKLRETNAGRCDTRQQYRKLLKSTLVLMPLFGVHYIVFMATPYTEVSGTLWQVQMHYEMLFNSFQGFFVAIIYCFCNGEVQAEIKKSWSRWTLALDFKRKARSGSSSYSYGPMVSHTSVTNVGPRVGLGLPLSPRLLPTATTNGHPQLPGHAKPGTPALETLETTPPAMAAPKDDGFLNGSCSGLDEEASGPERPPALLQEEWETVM
Nature of the experiment: cell-based or functional assay.

Experiment [2] addresses PTHR-emGFP expressed in transfected HEK 293 cells. Nature of the experiment: cell-based or functional assay.

B1: SEQ ID NO: 1 with 2 kD mPEG (peptide)
peptide: SVSEIQLMHNLGRHLASMERVEWLRK([CO‑CH2-mPEG 2 kD])LLQDVHNF-NH2
modifications: also: trifluoroacetate salt
B1: in experiment [1], the “Average EC50 (nM) (n = 2), cAMP induction in SaOS-2 cells (HTRF)” value is 7.7 nM. In addition, in experiment [2], the “PTHR1 internalization at 20 min, 100 nM compound, percent of vehicle only control (baseline=100%)” value is 160 % of vehicle only control; the “PTHR1 internalization at 40 min, 100 nM compound, percent of vehicle only control (baseline=100%)” value was 120 % of vehicle only control; the “PTHR1 internalization at 60 min, 100 nM compound, percent of vehicle only control (baseline=100%)” value was 104 % of vehicle only control; the “PTHR1 internalization at 180 min, 100 nM compound, percent of vehicle only control (baseline=100%)” value is 102 % of vehicle only control.

B2: SEQ ID NO: 1 with 5 kD mPEG (peptide)
peptide: SVSEIQLMHNLGRHLASMERVEWLRK([CO‑CH2-mPEG 5 kD])LLQDVHNF-NH2
modifications: also: trifluoroacetate salt
Regarding B2, in experiment [2], the “PTHR1 internalization at 20 min, 100 nM compound, percent of vehicle only control (baseline=100%)” value is 127 % of vehicle only control; the “PTHR1 internalization at 40 min, 100 nM compound, percent of vehicle only control (baseline=100%)” value was 93 % of vehicle only control; the “PTHR1 internalization at 60 min, 100 nM compound, percent of vehicle only control (baseline=100%)” value is 91 % of vehicle only control; the “PTHR1 internalization at 180 min, 100 nM compound, percent of vehicle only control (baseline=100%)” value is 92 % of vehicle only control.

B3: SEQ ID NO: 1 but unpegylated and Lysine at amino acid 26 (peptide)
peptide: SVSEIQLMHNLGRHLASMERVEWLRKLLQDVHNF
modifications: not fully specified (C-terminus)
On to B3, for which, in experiment [2], the “PTHR1 internalization at 20 min, 100 nM compound, percent of vehicle only control (baseline=100%)” value is 106 % of vehicle only control; the “PTHR1 internalization at 40 min, 100 nM compound, percent of vehicle only control (baseline=100%)” value is 126 % of vehicle only control; the “PTHR1 internalization at 60 min, 100 nM compound, percent of vehicle only control (baseline=100%)” value is 113 % of vehicle only control; the “PTHR1 internalization at 180 min, 100 nM compound, percent of vehicle only control (baseline=100%)” value was 142 % of vehicle only control.

Source of the values: patent US20090253630A1 (Eli Lilly, published 2009).
